To fix the notation:
B1: GpH7-A5/GpH7-B3 variant K334_18N/GpL16-k0 (antibody, human IgG1, kappa)
heavy 1: not shown
heavy 2: not shown
light: DIVMTQSPLSLPVTPGEPASISCQASESLVHSNRNTYLHWYLQKPGQSPQLLIYKVSNRFSGVPDRFSGSGSGTDFTLKISRVEAEDVGVYYCSQNTHVPPTFGQGTKVEIERTVAAPSVFIFPPSDEQLKSGTASVVCLLNNFYPREAKVQWKVDNALQSGNSQESVTEQDSKDSTYSLSSTLTLSKADYEKHKVYACEVTHQGLSSPVTKSFNRGEC
notes: also called He Ab K334_18N
B2: GpH7-A5/GpH7-B3 variant K334_15Y/GpL16-k0 (antibody, human IgG1, kappa)
heavy 1: not shown
heavy 2: not shown
light: B1 light
notes: also called He Ab K334_15Y
B3: GpH7-A5/GpH7-B3 variant K334_19Q/GpL16-k0 (antibody, human IgG1, kappa)
heavy 1: not shown
heavy 2: not shown
light: B1 light
notes: also called He Ab K334_19Q
B4: GpH7-A5/GpH7-B3 variant S337_10E/GpL16-k0 (antibody, human IgG1, kappa)
heavy 1: not shown
heavy 2: not shown
light: B1 light
notes: also called He Ab S337_10E
B5: GpH7-A5/GpH7-B3 variant Q295_02A/GpL16-k0 (antibody, human IgG1, kappa)
heavy 1: not shown
heavy 2: not shown
light: B1 light
notes: also called He Ab Q295_02A
B6: GpH7-A5/GpH7-B3 variant S267_09D/GpL16-k0 (antibody, human IgG1, kappa)
heavy 1: not shown
heavy 2: not shown
light: B1 light
notes: also called He Ab S267_09D
B7: GpH7-A5/GpH7-B3 variant S267_02A/GpL16-k0 (antibody, human IgG1, kappa)
heavy 1: not shown
heavy 2: not shown
light: B1 light
notes: also called He Ab S267_02A
B8: GpH7-A5/GpH7-B3 variant S239_09D/GpL16-k0 (antibody, human IgG1, kappa)
heavy 1: not shown
heavy 2: not shown
light: B1 light
notes: also called He Ab S239_09D
B9: GpH7-A5/GpH7-B3 variant T335_10E/GpL16-k0 (antibody, human IgG1, kappa)
heavy 1: not shown
heavy 2: not shown
light: B1 light
notes: also called He Ab T335_10E
B10: GpH7-A5/GpH7-B3 variant S337_18N/GpL16-k0 (antibody, human IgG1, kappa)
heavy 1: not shown
heavy 2: not shown
light: B1 light
notes: also called He Ab S337_18N
B11: GpH7-A5/GpH7-B3 variant Q295_10E/GpL16-k0 (antibody, human IgG1, kappa)
heavy 1: not shown
heavy 2: not shown
light: B1 light
notes: also called He Ab Q295_10E
B12: GpH7-A5/GpH7-B3 variant K334_16H/GpL16-k0 (antibody, human IgG1, kappa)
heavy 1: not shown
heavy 2: not shown
light: B1 light
notes: also called He Ab K334_16H
B13: GpH7-A5/GpH7-B3 variant S337_09D/GpL16-k0 (antibody, human IgG1, kappa)
heavy 1: not shown
heavy 2: not shown
light: B1 light
notes: also called He Ab S337_09D
B14: GpH7-A5/GpH7-B3 variant Q295_14T/GpL16-k0 (antibody, human IgG1, kappa)
heavy 1: not shown
heavy 2: not shown
light: B1 light
notes: also called He Ab Q295_14T
B15: GpH7-A5/GpH7-B3 variant S298_14T/GpL16-k0 (antibody, human IgG1, kappa)
heavy 1: not shown
heavy 2: not shown
light: B1 light
notes: also called He Ab S298_14T
B16: GpH7-A5/GpH7-B3 variant K334_13S/GpL16-k0 (antibody, human IgG1, kappa)
heavy 1: not shown
heavy 2: not shown
light: B1 light
notes: also called He Ab K334_13S
B17: GpH7-A5/GpH7-B3 variant K334_14T/GpL16-k0 (antibody, human IgG1, kappa)
heavy 1: not shown
heavy 2: not shown
light: B1 light
notes: also called He Ab K334_14T
B18: GpH7-A5/GpH7-B3 variant T335_07I/GpL16-k0 (antibody, human IgG1, kappa)
heavy 1: not shown
heavy 2: not shown
light: B1 light
notes: also called He Ab T335_07I
B19: GpH7-B3 variant E269_01G/GpL16-k0 (antibody, human IgG1, kappa)
heavy: not shown
light: B1 light
notes: also called Ho Ab E269_01G
B20: GpH7-B3 variant E269_08L/GpL16-k0 (antibody, human IgG1, kappa)
heavy: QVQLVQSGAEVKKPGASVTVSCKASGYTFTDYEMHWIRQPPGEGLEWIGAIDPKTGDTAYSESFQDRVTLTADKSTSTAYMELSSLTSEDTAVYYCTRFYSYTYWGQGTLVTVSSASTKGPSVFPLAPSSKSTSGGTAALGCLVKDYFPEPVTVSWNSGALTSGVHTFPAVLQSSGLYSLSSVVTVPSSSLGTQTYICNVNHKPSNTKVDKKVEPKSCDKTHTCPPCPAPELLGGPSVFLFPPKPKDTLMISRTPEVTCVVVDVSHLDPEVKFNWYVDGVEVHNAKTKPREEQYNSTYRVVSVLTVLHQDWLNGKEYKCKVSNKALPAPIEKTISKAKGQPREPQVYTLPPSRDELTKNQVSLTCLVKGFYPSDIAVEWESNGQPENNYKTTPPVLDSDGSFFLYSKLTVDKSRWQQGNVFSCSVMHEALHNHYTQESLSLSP
light: B1 light
notes: also called Ho Ab E269_08L
B21: GpH7-B3 variant A330_11K/GpL16-k0 (antibody, human IgG1, kappa)
heavy: not shown
light: B1 light
notes: also called Ho Ab A330_11K
B22: GpH7-B3 variant A330_08L/GpL16-k0 (antibody, human IgG1, kappa)
heavy: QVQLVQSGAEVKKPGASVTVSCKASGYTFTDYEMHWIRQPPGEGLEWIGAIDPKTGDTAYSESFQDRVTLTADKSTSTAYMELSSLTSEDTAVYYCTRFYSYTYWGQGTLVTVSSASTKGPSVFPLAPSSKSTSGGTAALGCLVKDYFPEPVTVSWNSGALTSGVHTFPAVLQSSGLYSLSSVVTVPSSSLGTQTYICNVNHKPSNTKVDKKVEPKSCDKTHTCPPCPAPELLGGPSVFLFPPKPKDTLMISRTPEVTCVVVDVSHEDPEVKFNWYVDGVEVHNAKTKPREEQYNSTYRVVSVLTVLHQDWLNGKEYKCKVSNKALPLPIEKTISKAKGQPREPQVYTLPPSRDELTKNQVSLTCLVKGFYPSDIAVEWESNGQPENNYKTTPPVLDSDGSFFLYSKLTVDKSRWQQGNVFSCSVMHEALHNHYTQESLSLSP
light: B1 light
notes: also called Ho Ab A330_08L
B23: GpH7-B3 variant E269_07I/GpL16-k0 (antibody, human IgG1, kappa)
heavy: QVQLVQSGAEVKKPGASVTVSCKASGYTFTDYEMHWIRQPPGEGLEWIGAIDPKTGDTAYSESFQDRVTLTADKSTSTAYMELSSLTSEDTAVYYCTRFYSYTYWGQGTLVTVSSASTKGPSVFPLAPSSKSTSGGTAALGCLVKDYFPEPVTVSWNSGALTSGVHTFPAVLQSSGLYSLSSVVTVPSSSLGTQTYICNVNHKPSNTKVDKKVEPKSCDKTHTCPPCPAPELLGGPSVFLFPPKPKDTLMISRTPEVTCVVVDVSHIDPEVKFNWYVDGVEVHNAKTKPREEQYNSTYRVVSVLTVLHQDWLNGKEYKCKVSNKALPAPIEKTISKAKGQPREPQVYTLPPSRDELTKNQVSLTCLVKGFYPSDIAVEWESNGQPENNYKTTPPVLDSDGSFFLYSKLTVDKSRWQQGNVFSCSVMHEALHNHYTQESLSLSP
light: B1 light
notes: also called Ho Ab E269_07I
B24: GpH7-B3 variant E269_05P/GpL16-k0 (antibody, human IgG1, kappa)
heavy: not shown
light: B1 light
notes: also called Ho Ab E269_05P
B25: GpH7-B3 variant A327_03V/GpL16-k0 (antibody, human IgG1, kappa)
heavy: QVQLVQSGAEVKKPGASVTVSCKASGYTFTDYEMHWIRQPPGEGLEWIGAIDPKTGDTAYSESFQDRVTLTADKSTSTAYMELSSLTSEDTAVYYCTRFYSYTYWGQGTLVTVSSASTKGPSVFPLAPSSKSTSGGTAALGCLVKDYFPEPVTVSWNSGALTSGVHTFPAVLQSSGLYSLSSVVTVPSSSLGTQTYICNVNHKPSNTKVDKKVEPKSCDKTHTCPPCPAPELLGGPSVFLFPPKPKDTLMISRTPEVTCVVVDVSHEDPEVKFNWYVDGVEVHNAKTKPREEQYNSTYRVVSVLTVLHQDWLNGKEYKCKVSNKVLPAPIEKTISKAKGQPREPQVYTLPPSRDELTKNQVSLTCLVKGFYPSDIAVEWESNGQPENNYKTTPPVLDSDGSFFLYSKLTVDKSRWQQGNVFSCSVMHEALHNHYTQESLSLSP
light: B1 light
notes: also called Ho Ab A327_03V
B26: GpH7-B3 variant A330_16H/GpL16-k0 (antibody, human IgG1, kappa)
heavy: not shown
light: B1 light
notes: also called Ho Ab A330_16H
B27: GpH7-B3 variant E269_13S/GpL16-k0 (antibody, human IgG1, kappa)
heavy: not shown
light: B1 light
notes: also called Ho Ab E269_13S
B28: GpH7-B3 variant A327_10E/GpL16-k0 (antibody, human IgG1, kappa)
heavy: not shown
light: B1 light
notes: also called Ho Ab A327_10E
B29: GpH7-B3 variant E269_02A/GpL16-k0 (antibody, human IgG1, kappa)
heavy: not shown
light: B1 light
notes: also called Ho Ab E269_02A
B30: GpH7-B3 variant E269_06M/GpL16-k0 (antibody, human IgG1, kappa)
heavy: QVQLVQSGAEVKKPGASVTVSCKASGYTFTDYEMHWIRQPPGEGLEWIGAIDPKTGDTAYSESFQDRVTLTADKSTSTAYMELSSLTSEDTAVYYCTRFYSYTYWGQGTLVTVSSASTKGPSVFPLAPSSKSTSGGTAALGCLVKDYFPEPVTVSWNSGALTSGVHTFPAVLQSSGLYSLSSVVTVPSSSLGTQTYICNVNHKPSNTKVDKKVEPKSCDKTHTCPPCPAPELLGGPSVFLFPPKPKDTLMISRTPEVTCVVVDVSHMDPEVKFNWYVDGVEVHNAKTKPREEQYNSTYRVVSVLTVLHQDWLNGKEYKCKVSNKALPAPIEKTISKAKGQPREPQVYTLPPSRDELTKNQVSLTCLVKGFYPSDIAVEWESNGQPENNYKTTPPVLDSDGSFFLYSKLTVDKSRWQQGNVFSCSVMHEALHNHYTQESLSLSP
light: B1 light
notes: also called Ho Ab E269_06M
B31: GpH7-B3 variant A327_06M/GpL16-k0 (antibody, human IgG1, kappa)
heavy: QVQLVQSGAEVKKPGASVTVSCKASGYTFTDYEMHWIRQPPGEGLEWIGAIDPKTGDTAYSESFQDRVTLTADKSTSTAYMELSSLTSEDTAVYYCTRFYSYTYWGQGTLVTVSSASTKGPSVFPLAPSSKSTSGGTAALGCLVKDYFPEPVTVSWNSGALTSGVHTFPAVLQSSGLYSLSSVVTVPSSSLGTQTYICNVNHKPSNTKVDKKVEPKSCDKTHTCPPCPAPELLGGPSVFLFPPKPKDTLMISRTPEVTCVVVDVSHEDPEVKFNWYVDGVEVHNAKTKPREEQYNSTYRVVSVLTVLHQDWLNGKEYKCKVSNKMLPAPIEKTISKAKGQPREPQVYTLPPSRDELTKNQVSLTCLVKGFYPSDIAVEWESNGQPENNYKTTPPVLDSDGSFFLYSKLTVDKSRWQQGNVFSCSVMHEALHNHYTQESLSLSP
light: B1 light
notes: also called Ho Ab A327_06M
B32: GpH7-B3 variant A330_05P/GpL16-k0 (antibody, human IgG1, kappa)
heavy: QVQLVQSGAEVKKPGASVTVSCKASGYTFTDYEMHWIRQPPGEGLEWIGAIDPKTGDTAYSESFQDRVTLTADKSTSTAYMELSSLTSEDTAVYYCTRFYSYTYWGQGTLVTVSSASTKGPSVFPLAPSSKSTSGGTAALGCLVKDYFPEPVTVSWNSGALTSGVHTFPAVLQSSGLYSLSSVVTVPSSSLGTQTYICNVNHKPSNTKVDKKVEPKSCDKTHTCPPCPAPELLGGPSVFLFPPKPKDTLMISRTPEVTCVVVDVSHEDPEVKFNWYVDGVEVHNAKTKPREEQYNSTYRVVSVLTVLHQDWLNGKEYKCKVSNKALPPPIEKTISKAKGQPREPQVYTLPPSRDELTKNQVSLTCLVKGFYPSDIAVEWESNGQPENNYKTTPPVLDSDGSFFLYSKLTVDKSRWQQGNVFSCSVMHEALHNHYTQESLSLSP
light: B1 light
notes: also called Ho Ab A330_05P
B33: GpH7-B3 variant A330_09D/GpL16-k0 (antibody, human IgG1, kappa)
heavy: not shown
light: B1 light
notes: also called Ho Ab A330_09D
B34: GpH7-B3 variant E269_03V/GpL16-k0 (antibody, human IgG1, kappa)
heavy: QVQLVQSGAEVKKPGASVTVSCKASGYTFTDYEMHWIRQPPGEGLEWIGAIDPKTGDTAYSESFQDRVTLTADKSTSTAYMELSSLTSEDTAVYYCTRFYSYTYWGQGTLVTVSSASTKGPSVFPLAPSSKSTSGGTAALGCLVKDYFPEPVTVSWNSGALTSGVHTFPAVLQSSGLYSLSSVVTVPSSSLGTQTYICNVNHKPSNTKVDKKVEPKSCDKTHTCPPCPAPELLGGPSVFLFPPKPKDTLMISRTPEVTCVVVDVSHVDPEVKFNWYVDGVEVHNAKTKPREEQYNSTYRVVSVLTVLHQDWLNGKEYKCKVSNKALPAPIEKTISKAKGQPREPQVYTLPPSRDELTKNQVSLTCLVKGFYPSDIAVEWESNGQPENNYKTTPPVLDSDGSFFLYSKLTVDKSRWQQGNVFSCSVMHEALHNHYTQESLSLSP
light: B1 light
notes: also called Ho Ab E269_03V
B35: GpH7-B3 variant E269_04F/GpL16-k0 (antibody, human IgG1, kappa)
heavy: not shown
light: B1 light
notes: also called Ho Ab E269_04F
B36: GpH7-B3 variant A327_07I/GpL16-k0 (antibody, human IgG1, kappa)
heavy: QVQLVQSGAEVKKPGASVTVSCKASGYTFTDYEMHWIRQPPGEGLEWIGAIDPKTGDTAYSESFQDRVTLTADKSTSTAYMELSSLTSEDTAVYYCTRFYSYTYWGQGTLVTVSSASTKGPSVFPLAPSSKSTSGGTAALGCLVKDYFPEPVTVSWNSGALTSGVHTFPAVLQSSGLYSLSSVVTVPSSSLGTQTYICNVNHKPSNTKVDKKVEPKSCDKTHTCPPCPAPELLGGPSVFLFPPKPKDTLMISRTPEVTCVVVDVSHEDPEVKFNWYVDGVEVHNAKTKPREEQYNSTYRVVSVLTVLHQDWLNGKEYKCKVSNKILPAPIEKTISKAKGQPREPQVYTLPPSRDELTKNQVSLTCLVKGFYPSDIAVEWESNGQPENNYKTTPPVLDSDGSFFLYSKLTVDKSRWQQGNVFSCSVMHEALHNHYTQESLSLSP
light: B1 light
notes: also called Ho Ab A327_07I
B37: GpH7-B3 variant A330_14T/GpL16-k0 (antibody, human IgG1, kappa)
heavy: not shown
light: B1 light
notes: also called Ho Ab A330_14T
B38: GpH7-B3 variant E269_09D/GpL16-k0 (antibody, human IgG1, kappa)
heavy: not shown
light: B1 light
notes: also called Ho Ab E269_09D
B39: GpH7-B3 variant A327_09D/GpL16-k0 (antibody, human IgG1, kappa)
heavy: not shown
light: B1 light
notes: also called Ho Ab A327_09D
B40: GpH7-B3 variant A327_13S/GpL16-k0 (antibody, human IgG1, kappa)
heavy: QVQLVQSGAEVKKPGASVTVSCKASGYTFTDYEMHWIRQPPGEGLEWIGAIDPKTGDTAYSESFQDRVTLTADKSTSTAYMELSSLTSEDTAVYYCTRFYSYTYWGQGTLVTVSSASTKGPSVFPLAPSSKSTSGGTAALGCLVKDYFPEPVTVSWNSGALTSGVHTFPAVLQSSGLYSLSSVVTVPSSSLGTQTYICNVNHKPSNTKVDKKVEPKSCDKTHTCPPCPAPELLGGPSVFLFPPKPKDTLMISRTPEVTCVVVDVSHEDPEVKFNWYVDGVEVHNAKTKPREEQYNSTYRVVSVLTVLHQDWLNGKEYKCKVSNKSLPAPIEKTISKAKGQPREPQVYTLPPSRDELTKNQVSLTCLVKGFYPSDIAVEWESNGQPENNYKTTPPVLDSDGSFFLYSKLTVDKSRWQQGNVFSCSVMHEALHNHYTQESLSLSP
light: B1 light
notes: also called Ho Ab A327_13S

T1 sequence (P08637 17-208): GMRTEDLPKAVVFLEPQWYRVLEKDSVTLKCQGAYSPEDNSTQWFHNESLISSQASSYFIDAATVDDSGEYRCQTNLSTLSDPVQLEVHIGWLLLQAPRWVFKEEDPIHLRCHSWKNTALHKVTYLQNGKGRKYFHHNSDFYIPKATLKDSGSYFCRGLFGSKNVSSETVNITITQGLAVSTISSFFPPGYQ

The first experiment concerns the target T1, FcγRIIIa extracellular domain with C-terminal His tag (human, UniProt P08637 17-208).
T1 construct: extracellular domain; also called FcgRIIIa; 3a; not shown: His tag attached to the C terminus
Briefly: SPR Biacore, captured antibody, FcγR analyte, relative binding. The method, then: (§1) Analysis of interaction between objective antibody and the FcγR was carried out using Biacore T100 (GE Healthcare). HBS-EP+ (GE Healthcare) was used as the running buffer, and the measurement temperature was set to 25° C. Chips produced by immobilizing the antigen peptide by the amine coupling method to a Series S Sencor Chip CM5 (GE Healthcare), or alternatively, chips produced by allowing preliminarily biotinylated antigen peptides to interact with and immobilize onto a Series S Sensor Chip SA (certified) (GE Healthcare) were used. Antibodies of interest were captured onto an antigen peptide-immobilized chip, and allowed to interact to each FcγR diluted with running buffer. To regenerate and repeatedly use the chip, the antibodies captured on the chip were washed off by reacting 10 mM glycine-HCl, pH 1.5.
On the technique in general: Surface plasmon resonance follows binding to a sensor surface in real time, without labels.
Consider B1, for which the He/Con_3a is 136 % of HeCon Ab GpH7-A5/GpH7-B3/GpL16-k0 (=100).

With B2, the He/Con_3a was 141 % of HeCon Ab GpH7-A5/GpH7-B3/GpL16-k0 (=100).

In the case of B3, the He/Con_3a is 136 % of HeCon Ab GpH7-A5/GpH7-B3/GpL16-k0 (=100).

Take B4: the He/Con_3a is 105 % of HeCon Ab GpH7-A5/GpH7-B3/GpL16-k0 (=100).

Take B5: the He/Con_3a was 106 % of HeCon Ab GpH7-A5/GpH7-B3/GpL16-k0 (=100).

Regarding B6, the He/Con_3a was 181 % of HeCon Ab GpH7-A5/GpH7-B3/GpL16-k0 (=100).

For the molecule B7, the He/Con_3a was 150 % of HeCon Ab GpH7-A5/GpH7-B3/GpL16-k0 (=100).

For B8, the He/Con_3a was 166 % of HeCon Ab GpH7-A5/GpH7-B3/GpL16-k0 (=100).

As to B9, the He/Con_3a was 107 % of HeCon Ab GpH7-A5/GpH7-B3/GpL16-k0 (=100).

As to B10, the He/Con_3a was 104 % of HeCon Ab GpH7-A5/GpH7-B3/GpL16-k0 (=100).

With B11, the He/Con_3a is 100 % of HeCon Ab GpH7-A5/GpH7-B3/GpL16-k0 (=100).

As to B12, the He/Con_3a is 134 % of HeCon Ab GpH7-A5/GpH7-B3/GpL16-k0 (=100).

Take B13: the He/Con_3a was 110 % of HeCon Ab GpH7-A5/GpH7-B3/GpL16-k0 (=100).

Consider B14, for which the He/Con_3a is 115 % of HeCon Ab GpH7-A5/GpH7-B3/GpL16-k0 (=100).

Take B15: the He/Con_3a is 113 % of HeCon Ab GpH7-A5/GpH7-B3/GpL16-k0 (=100).

On to B16, for which the He/Con_3a is 145 % of HeCon Ab GpH7-A5/GpH7-B3/GpL16-k0 (=100).

Take B17: the He/Con_3a was 141 % of HeCon Ab GpH7-A5/GpH7-B3/GpL16-k0 (=100).

In the case of B18, the He/Con_3a was 107 % of HeCon Ab GpH7-A5/GpH7-B3/GpL16-k0 (=100).

The target in the next experiment is T2, FcγRIa (human, UniProt P12314 16-292).
T2 construct: extracellular domain; also called FcgRI; 1a
T2 sequence (P12314 16-292): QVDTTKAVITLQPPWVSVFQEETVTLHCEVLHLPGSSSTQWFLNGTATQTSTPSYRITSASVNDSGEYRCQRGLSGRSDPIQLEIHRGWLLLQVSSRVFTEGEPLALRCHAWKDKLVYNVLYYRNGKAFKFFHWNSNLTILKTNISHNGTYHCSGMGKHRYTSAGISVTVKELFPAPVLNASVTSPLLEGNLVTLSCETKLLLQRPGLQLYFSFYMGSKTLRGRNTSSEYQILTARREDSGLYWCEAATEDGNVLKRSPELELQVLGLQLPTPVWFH
Nature of the experiment: SPR (Biacore); Ho Ab relative to HoCon Ab = 100. The procedure:
as §1
Turning to B19, the Ho/Con_1a is 97.4 % of control.

Consider B20, for which the Ho/Con_1a was 101 % of control.

As for B21, the Ho/Con_1a is 94.1 % of control.

As to B22, the Ho/Con_1a is 106 % of control.

As to B23, the Ho/Con_1a was 97.1 % of control.

As to B24, the Ho/Con_1a was 95.7 % of control.

Take B25: the Ho/Con_1a was 94.4 % of control.

Regarding B26, the Ho/Con_1a is 104 % of control.

In the case of B27, the Ho/Con_1a is 95.9 % of control.

For the molecule B28, the Ho/Con_1a is 98.8 % of control.

As to B29, the Ho/Con_1a is 96.2 % of control.

For B30, the Ho/Con_1a was 101 % of control.

Regarding B31, the Ho/Con_1a is 93.1 % of control.

On to B32, for which the Ho/Con_1a is 84.4 % of control.

As for B33, the Ho/Con_1a was 108 % of control.

Regarding B34, the Ho/Con_1a is 95.4 % of control.

Turning to B35, the Ho/Con_1a was 102 % of control.

For B36, the Ho/Con_1a is 95.5 % of control.

Turning to B37, the Ho/Con_1a is 105 % of control.

Take B38: the Ho/Con_1a was 106 % of control.

As for B39, the Ho/Con_1a is 102 % of control.

Take B40: the Ho/Con_1a was 86.1 % of control.

(Values after US20150344570A1 (published 2015).)
